Test results as given in the DeepSol protein solubility set.

assay: soluble on expression in E. coli; label from the status in PepcDB or PDB records

Soluble on expression in E. coli, not soluble:
MGSDKIHHHHHHMAMTQTENQTAPQQHIRIFDTTLRDGEQSPGVALNHAQKLEIAHTLARMGVDVIEAGFPIASPGDLEGVSRIAREVRGPVITALARANRADIEAAAKGVEAAEKSRIHTFIATSPIHMQKKLNLEPDAVIERAVEAVRLARQYVDDVEFSAEDATRSEWDFLSRIFKAAVEAGATTINVPDTVGYTTPEEMRKLFAYLKAKLPAHVILSSHCHDDLGMAVANSIAAAEGGARQIECTINGIGERAGNASLEEIVMAFHTRRDVYGYETGIRTRELYRASRLVSRLSGMPVQPNKAIVGDNAFAHESGIHQDGVIKARETYEIMNAELVGREAAVLVMGKHSGRAAFRKALTDLGYGDIPDDKVQHLFGRFKDLADRKGQIYAEDLRALVDARSDVPQTFSLEGFQITSGMNMMPVAFVRLHTPDGPVDATAHGDGPVEAAFQAISKITGISPTLESYRIQSVTRGDDALGEVSIHVRHGETQLNGTGVATDIVEASARAWIRVMNMIVAGMGKNKAITQMTP, MGSDKIHHHHHHMANIYPKRAIYCACAKTRKQRRSSYMSNERYNLRGVSASKEDVHAAIKNVDKGIFPQAFCKIIPDILGGDPDYCNIMHADGAGTKSSLAYVYWRETGDLSVWKGIAQDALIMNIDDLLCVGAVDNILVSSTIGRNKRLIPGEVVSAIINGTEELLADLRRMGVNAYATGGETADVGDLVRTIIVDSTVTCRMKRSDVIDNARIKAGDVIVGLASFGQASYEEQYNGGMGSNGLTSARHDVFAHYLAEKYPESFDPSVPDDLVYSGSMKLTDAIAGLGLDAGKLVLSPTRTYAPVVKAILDEMSRRIHGMVHCSGGAQTKVMHFVKNKRVVKDNFFPTPPLFELIQRESLTEWSEMYKVFNMGHRLEVYLSEENASHVIEISESFGIPARIVGRVEEAPTNELILQTPYGEIRY, MGSDKIHHHHHHMANNNGKDKSLESWIWDAACSIRGAKDAPKYKDYILPLIFTKRLCDVFDDELNRIAAEVGSRKKAFQLAKADHKLVRFYLPLVPDDPEQPVWSVIRKLSDWIGEGVTSHMRAIARENPLLQGIIDRVDFNATTHGQRDLDDDRLSNLIEAISTKRLGLEDVEADIIGKSYEYLIRKFAEGGGQSAGEFYTPPEVGTIMSRVLQPEPGMEIYDPTCGSGGLLVKCEIAMEETAKGKKRTVAPLKLFGQEFTPETWAMANMNMIIHDMEGQIEIGDTFKNPKFRSKGKLRTFDRVVANPMWNQDWFTEADYDNDELDRFPAGAGFPGKSSADWGWVQHIHASMNATGRAAVVLDTGAASRGSGNAGTNKEKTVRQWFVDHDLIESVLYLPENLFYNTTAPGIVLFLNKAKAHERKGKVFLVNASQVFEKGDPKNFIPEAGIQRIADTLIGWVEAEKLSRIVDHAELKKNDYNISPSRYIHTSDAETYRPIAEIVEELEAIEAEAKETDQALDRILKQLGIGA, MGSDKIHHHHHHMANQLILLKKDFFTDEQQAVTVADRYPQDVFAEHTHEFCELVMVWRGNGLHVLNERPYRITRGDLFYIRAEDKHSYTSVNDLVLQNIIYCPERLKLNVNWQAMIPGFQGAQWHPHWRLGSMGMNQARQVINQLEHESNGRDPLANEMAELLFGQLVMTLKRHRYATDDLPATSRETLLDKLITALANSLECPFALDAFCQQEQCSERVLRQQFRAQTGMTINQYLRQVRICHAQYLLQHSPLMISEISMQCGFEDSNYFSVVFTRETGMTPSQWRHLSNQSD, MGSDKIHHHHHHMARINLEQLSTFLAVVRLGGVRRAATSLNLTQPAVTARIKNLEDNLDCELFDRTQSGMKLTKRGELLLGHAEKYEHLTQLVERDLVDPAGVEGRLRLGASETIAQCWLPDLVTRLHQLFPKLEIELVVDISANLRAGLMDRELDLAILLGPLSEFSVNNVELPDFELAWYAAADTSSEAIAASYLSRPVLTYPRNTRPYRELKEKLFEQAGPNFSLFPSSSLSACFRLVEADLGVAVLPRALGREYVLAGRIREFDPGWVPAPLRFTICYMGEPKSQLIETAAHMAREVAVDYHGDKNNL, MGSDKIHHHHHHMARQNKRQSDDRELARKFEELLKEGTPGFFDVSVYESIIQYYLEGTKFRKAHRTCDIAMEQHPYSVEIMLLKVQVLMQMTQFEEALEILDRAQLYQPNDTDIQLLRANIMAQQDDFEGAIELLEEILTLAEEKDEIHYHMGVIYQDMGNFEESINHLKEAIMLNSQHEDAIYELSYSLEVLDRLEESIDFFKQLIEKDPYSHFAWFCLGVSYFKQGKLDEALDAYEFVIAINDKYSSAYYNIGECYVYKNEYEKALEYFFQTMDMEDKTADVFYNIGFCYEHLGMHPKAIEFYRKASKADAYFHEAYYGIGKCLEAQDKSYESIHFFKRALKLDEANAEYWLAKANAEYKTGNIISSLEAFEEACVLEPSNPEVWKNWSFVHYESGDMDKAIDLINAGIDEMPGNADLYYRAVAYLITAGRYKEAFNYLENALTLNFDSHTVLFEFFPKLETQKALFRIIDQYRNK, MGSDKIHHHHHHMASIQNLYETVVGVLGDQASKVISALGEITVECLPEHYISVMTALRDHEELHFELLVDLCGVDYSTYKNEVWQGKRFAVVSQLLSVKNNQRIRVRVWVSDDDFPVVESVVDIYNSADWYEREAFDMYGIMFNNHPDLRRILTDYGFVGHPFRKDFPISGYVEMRYDEEQKRVIYQPVTIEPREITPRIVREENYGGQ, MGSDKIHHHHHHMASMFNRVPPLHLLVAFEAAARLGSFARAAEELSVTPSAVSHRIKNLEELWGEDLFVRSNAALRLTAAGTRYLRNVQDALKSLNELARPEYNKMRTRLRVAIPPTFGRQHLVPRLPEFGALYPHIDIELHLAIPFLDVKAEDTDVEIRYGTGRYPDLKTTKLLVEPVFPACGREYYERVNGRAITKPEHLHGLVLLRSPLEPWKPWFETAGLDWPEPQTGPQLNDIGLMLEAVASNQGVALVRQRMARHWLSLGQMVRLLDIESVSPHGYYIVEREQAPLKPEARYFVDWLLSLDW, MGSDKIHHHHHHMATRHDRDGGQTTANLTIATGLDAFTRKEWATLAGTTRSDSDYNPFISHEFLAALEESGCAARRTGWLPQHLRLEDANGSLLGVVPCYLKSHSKGEYVFDYGWADAFERAGGQYYPKLQVSVPFTPVTGPRLLASKDADPDAVRQALAEGLKTLTDRLGVSSLHVTFAPRSETEVLSHAGFLTRTDQQFHFFNEGYGSYEDFLEALASRKRKALKKERRTAVEAGMEIEWLTGRDITEAAWDDFFAFYMDTASRKWGRPYLNRLFFSLIGERMADDILLVMAKRGSRYIAGAINFIGSDALYGRNWGAIEHHPFLHFEVCYHQAIEFAIAKGLKRVEAGAQGEHKLARGYLPVTTYSAHYIAHPGLRRAVADYLSRERREVEAIGDFLTEHSPYKKG, MGSDKIHHHHHHMATVAFHTLGCKVNHYETEAIWQLFKEAGYERRDFEQTADVYVINTCTVTNTGDKKSRQVIRRAIRQNPDGVICVTGCYAQTSPAEIMAIPGVDIVVGTQDREKMLGYIDQYREERQPINGVSNIMKARVYEELDVPAFTDRTRASLKIQEGCNNFCTFCIIPWARGLLRSRDPEEVIKQAQQLVDAGYKEIVLTGIHTGGYGEDMKDYNFAKLLSELDTRVEGVKRIRISSIEASQITDEVIEVLDRSDKIVNHLHIPIQSGSNTVLKRMRRKYTMEFFADRLNKLKKALPGLAVTSDVIVGFPGETEEEFMETYNFIKEHKFSELHVFPYSKRTGTPAARMEDQVDENVKNERVHRLIALSDQLAKEYASQYENEVLEIIPEEAFKETEEENMFVGYTDNYMKVVFKGTEDMIGKIVKVKILKAGYPYNEGQFVRVVEDEITEHMRLSS, MGSDKIHHHHHHMAVINPFVVGGYVSPRYFCDRVAETENLIRNLINGRNVALVSTRRMGKTGLIRHCFYQPLIKEGYYTFFIDIYATSSLKEFVFALGKGIFEKLKPQGNKFIDRFFSIITSLRIGFKLDSITGEPILELGLGDIHAPETTLEEIFIYLEQADKPCIVAIDEFQQISSYPEKNLEAILRTKVQHCSNSNFVFAGSQRHIMMNIFNSPSRPFYQSVSMMHLGAIPLEVYKPFVKGLFEENGKKVTDQLVENVYTLFDGHTWYVQLILNELFILTDKKGICDVPMINLALNNIIATQDFTFQEIFSRLPEKQKEIMIAIAKEQKAKGVTSAAFIKKYRLTSASSVQSGLKGLLEKDMLTQESGGYQVYDRLFNIWLRRNY, MGSDKIHHHHHHMAVSIEGSPPCSYFMCLQLYSQYIRYNHFMRLNDEQQMNEKHSDHADKTKMPSSETLKQVCQPEERVLGRADDGSVMEFMLQTEHGNTYLCRFPPGFISHAAIQLCTEEIWYFIQGEGVFWIKHEGIERQVPFNAGTALHAPCGGAMQFRNNGHLEAVAHVVTMPPWPGSDGAKLTKGPWESV, MGSDKIHHHHHHMAVSSNGGAIKAVIYDCDGVMFDSFEANLAFYQRIMEMMGRPRLSRDNEEQMRILHTYANREVLAHFFPSPGDWEEAVRCAGAIDYRELVPLMIMEEGFREALDTLKGRVGLGVCTNRSTSMDMVLRLFSLDSYFSIVMTASRVTNPKPHPEPLLKVLEHFGIGPREALFVGDSEVDRLSAEAAGVPFVAYKAPLPAAYRMEHHREIIDLLG, MGSDKIHHHHHHMAVTLYSSIATPHNKNTHHYFTRRTFLPDQQNSLWKIEAGFVRTFTYLENGTTVALGLWGPGDILGRALSKLEPYQMECLTKVEATIVPIEEWKNPTDTLLAHIQQAEELMVIRSYKKVDTMLIKLLAWLSKKFGSEVDKGRLIDMRLTHEDLAEMLGSTRVTITRILGQFEEEGLINRLSLHRIVLKEEDIWYYEI, MGSDKIHHHHHHMAYRSAPIADDIIWRAAPQPEDASLADAVRETIASTRKHLLDFIRLDETPPPAAMTLAQWTRPATFRSLLAAYSDHIYRHTPGLPRENKPLLSLWAQWYIGLMTPPLMLALLTQARAINVSAEHIHVEFHETGRAACFWLDVHQDNLATERSPEERMETLIVSALQPVIQALEATGDINAKLIWSNTGYLINWYLTEMKPLLGEALLATLRQRCFFEKQLSDGQDNPLWRTVVMRDGLLVRRTCCQRYRLPDVQQCGDCTLK, MGSDKIHHHHHHMCVEGLTSSGSVNWHDAWLTLSDGVKLVARLWIPKGEGPWPALVMRQPYGRALASTVTYIHPGWWASHGYLVVVQDVRGQGDSEGHFNGFLQEASDTSQTHAWVRELPECNGRLGTYGFSYQGLTQLLAEPGTPPPDCLAPAMAGVDERNHWSCEGGAHWWHLGLAWGLQLAALQARRCGNWEAWRELRRSLEDDSYLYEGPALLKRHDPDGMSFRWLHQANQNDHGWVVHKPLDSWLRQPMLLLGGWWDPHLNGLLDLYQRSSQVGGSPELHIGPATHLQWWPDAQQLQLEFFDRHLKSSKALTNSRPHGRIWNITSCSWQTFASPTQTTTSANASWSLVSGGMACLDPSEGTLHQNKKGGGVVYVVHDPWRPVQSVGGHLSPKPGVAERSALDQRADVATFTSTALQEPLQLNGIPLLQLTVQSDQPGFDLCVALSIVNCNHSEVKQLSTGFLRVQGEQALRMLPRKVKLQPILADLERGEHLRLSLAGAAWPAIGVNPGHDRHPCGPPGPHCQVVTMTLQLNGSKLRFLSWNSGKIDFDLPQEF, MGSDKIHHHHHHMDCSKASTDTEKMICASSRLQQLDAVLNKAYQGYVKKADKAQARQEQRTWLAERDRCKDDVCLGNEMVSRIQALSGSENISVITQASGQWDFILSVATCNLDSSYSTCEGPGTLDIFKKGSGDLFQRITMENLFIELNNKGEVTANLVEVYGENNSGLVIDDANFDHHADIMLRNGNNGAYGGPSYDVYLFDVEKQQFTQNAPLTELASSNLGLFDIDEKSKTITTFTKSGCCWHQWSAYQMANNKPVLIVETTEAYSEEKQAMVATTRELVSGKWKVKEEIVKIDEQ
